Test results as given in patent CN115960240A (CHINESE ACADEMY OF MEDICAL SCIENCES HEMATOLOGIC DISEASE …, dated 2023).

Experiments:
人BCMA (B细胞成熟抗原) = target: T1, 人BCMA (B细胞成熟抗原) (human, UniProt Q02223 1-184); assay: FACS titration (400 nM to 0.025 nM) on H929 cells, mean fluorescence, fitted in GraphPad Prism 7
T1 construct: whole, on cells; Endogenous BCMA on H929 cells; also called B-cell maturation antigen; H929细胞表面BCMA蛋白
T1 sequence (looked up): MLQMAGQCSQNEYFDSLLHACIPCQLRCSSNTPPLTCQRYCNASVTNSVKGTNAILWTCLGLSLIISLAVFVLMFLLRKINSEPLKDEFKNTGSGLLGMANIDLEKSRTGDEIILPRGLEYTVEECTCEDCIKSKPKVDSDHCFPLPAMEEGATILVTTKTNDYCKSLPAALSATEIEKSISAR

人CD3 = target: T2, 人CD3 (human, UniProt P07766 23-207); assay: FACS titration (400 nM to 0.025 nM) on Jurkat cells, mean fluorescence, fitted in GraphPad Prism 7
T2 construct: whole, on cells; also called Jurkat细胞表面CD3蛋白
T2 sequence (P07766 23-207): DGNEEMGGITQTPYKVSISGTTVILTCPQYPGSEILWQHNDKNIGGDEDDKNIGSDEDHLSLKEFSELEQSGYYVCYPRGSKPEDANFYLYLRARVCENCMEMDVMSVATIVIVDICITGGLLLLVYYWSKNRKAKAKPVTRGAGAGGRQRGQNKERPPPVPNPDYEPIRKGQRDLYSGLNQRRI

- Kd (人BCMA (B细胞成熟抗原)): 1.96 nM
- Kd (人CD3): 1.96 nM
B1: 四价双特异性抗体Tandab(CD3/BCMA) (bispecific antibody)
chain: DADIELTQSPAIMSASPGEKVTMTCSASSSVSYMNWYQQKSGTSPKRWIYDTSKLASGVPARFSGSGSGTSYSLTISGMEAEDAATYYCQQWSSNPFTFGCGTKLELKRGGGGSQVQLQQSGAEVVRPGTSVKVSCKASGYAFTNYLIEWVKQRPGQGPEWIGVITPGRGDTKYNAKFAGKATLTADKSSSTAYMQLSSLTFDDSAVYFCARGTTAWFPYWGQGTLVTVSAGGGGSGGGGSGGGGSDIVLTQSPASLTVSLGQRATISCRASKSVSTSGYSYMHWYQQKPRQPPKLLIYLASNLESGVPARFSGSGSGTDFTLNIHPVEEEDAATYYCQHSRDLPYTFGGGTKLEIKRAGGGGSQVQLQQSGAELARPGASVKMSCKASGYTFTRYTMHWVKQRPGQCLEWIGYINPSRGYTNYNQKFKDKATLTTDKSSSTAYMELTRLTSEDSAVYYCARYYDDHYSLDYWGQGTTVTVSSHHHHHH
notes: Tetravalent tandem diabody made from anti-BCMA mAb 69G8 and anti-CD3 mAb HIT3a, expressed in ExpiCHO-S cells and purified on a nickel column; detected with an anti-His secondary antibody, so it carries a His tag
